The values that follow come from IntAct's records for PubMed 31515488.

B1: DNA mismatch repair protein Mlh1 (Homo sapiens), P40692 (parent)
chain: MSFVAGVIRRLDETVVNRIAAGEVIQRPANAIKEMIENCLDAKSTSIQVIVKEGGLKLIQIQDNGTGIRKEDLDIVCERFTTSKLQSFEDLASISTYGFRGEALASISHVAHVTITTKTADGKCAYRASYSDGKLKAPPKPCAGNQGTQITVEDLFYNIATRRKALKNPSEEYGKILEVVGRYSVHNAGISFSVKKQGETVADVRTLPNASTVDNIRSIFGNAVSRELIEIGCEDKTLAFKMNGYISNANYSVKKCIFLLFINHRLVESTSLRKAIETVYAAYLPKNTHPFLYLSLEISPQNVDVNVHPTKHEVHFLHEESILERVQQHIESKLLGSNSSRMYFTQTLLPGLAGPSGEMVKSTTSLTSSSTSGSSDKVYAHQMVRTDSREQKLDAFLQPLSKPLSSQPQAIVTEDKTDISSGRARQQDEEMLELPAPAEVAAKNQSLEGDTTKGTSEMSEKRGPTSSNPRKRHREDSDVEMVEDDSRKEMTAACTPRRRIINLTSVLSLQEEINEQGHEVLREMLHNHSFVGCVNPQWALAQHQTKLYLLNTTKLSEELFYQILIYDFANFGVLRLSEPAPLFDLAMLALDSPESGWTEEDGPKEGLAEYIVEFLKKKAEMLADYFSLEIDEEGNLIGLPLLIDNYVPPLEGLPIFILRLATEVNWDEEKECFESLSKECAMFYSIRKQYISEESTLSGQQSEVPGSIPNSWKWTVEHIVYKALRSHILPPKHFTEDGNILQLANLPDLYKVFERC
B2: Protein FAM9B (Homo sapiens), Q8IZU0 (parent)
chain: MAAWGKKHAGKDPVRDECEERNRFTETREEDVTDEHGEREPFAETDEHTGANTKKPEDTAEDLTAKRKRMKMDKTCSKTKNKSKHALRKKQLKRQKRDYIHSLKLLNVLEEYITDEQKEEEEEEGEEEELIRIFQEQQKKWQQYRSVRRERLKEMKLLRDQFVKALEDFEDLCDRVFSDEDSELDN
partner: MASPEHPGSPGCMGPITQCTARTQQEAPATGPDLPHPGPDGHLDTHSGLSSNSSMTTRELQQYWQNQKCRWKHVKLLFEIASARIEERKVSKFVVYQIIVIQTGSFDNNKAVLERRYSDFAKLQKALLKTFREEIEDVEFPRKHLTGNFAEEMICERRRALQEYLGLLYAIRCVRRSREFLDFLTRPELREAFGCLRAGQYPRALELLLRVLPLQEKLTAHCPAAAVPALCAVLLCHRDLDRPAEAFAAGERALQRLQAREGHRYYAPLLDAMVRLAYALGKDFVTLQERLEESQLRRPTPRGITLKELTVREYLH
B3: "Dol-P-Man:Man(5)GlcNAc(2)-PP-Dol alpha-1,3-mannosyltransferase" (Homo sapiens), Q92685 (parent)
chain: MAAGLRKRGRSGSAAQAEGLCKQWLQRAWQERRLLLREPRYTLLVAACLCLAEVGITFWVIHRVAYTEIDWKAYMAEVEGVINGTYDYTQLQGDTGPLVYPAGFVYIFMGLYYATSRGTDIRMAQNIFAVLYLATLLLVFLIYHQTCKVPPFVFFFMCCASYRVHSIFVLRLFNDPVAMVLLFLSINLLLAQRWGWGCCFFSLAVSVKMNVLLFAPGLLFLLLTQFGFRGALPKLGICAGLQVVLGLPFLLENPSGYLSRSFDLGRQFLFHWTVNWRFLPEALFLHRAFHLALLTAHLTLLLLFALCRWHRTGESILSLLRDPSKRKVPPQPLTPNQIVSTLFTSNFIGICFSRSLHYQFYVWYFHTLPYLLWAMPARWLTHLLRLLVLGLIELSWNTYPSTSCSSAALHICHAVILLQLWLGPQPFPKSTQHSKKAH
partner: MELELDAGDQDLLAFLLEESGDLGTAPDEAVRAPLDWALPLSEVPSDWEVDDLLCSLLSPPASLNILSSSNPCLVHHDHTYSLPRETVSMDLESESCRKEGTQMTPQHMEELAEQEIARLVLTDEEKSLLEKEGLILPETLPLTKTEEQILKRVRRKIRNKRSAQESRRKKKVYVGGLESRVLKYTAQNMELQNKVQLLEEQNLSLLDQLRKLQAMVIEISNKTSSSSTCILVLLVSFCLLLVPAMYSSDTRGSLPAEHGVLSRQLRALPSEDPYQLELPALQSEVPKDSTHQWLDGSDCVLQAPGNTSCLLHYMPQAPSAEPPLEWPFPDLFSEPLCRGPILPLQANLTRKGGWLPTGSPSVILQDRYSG
B4: F-box/WD repeat-containing protein 1A (Homo sapiens), Q9Y297 (parent)
chain: MDPAEAVLQEKALKFMCSMPRSLWLGCSSLADSMPSLRCLYNPGTGALTAFQNSSEREDCNNGEPPRKIIPEKNSLRQTYNSCARLCLNQETVCLASTAMKTENCVAKTKLANGTSSMIVPKQRKLSASYEKEKELCVKYFEQWSESDQVEFVEHLISQMCHYQHGHINSYLKPMLQRDFITALPARGLDHIAENILSYLDAKSLCAAELVCKEWYRVTSDGMLWKKLIERMVRTDSLWRGLAERRGWGQYLFKNKPPDGNAPPNSFYRALYPKIIQDIETIESNWRCGRHSLQRIHCRSETSKGVYCLQYDDQKIVSGLRDNTIKIWDKNTLECKRILTGHTGSVLCLQYDERVIITGSSDSTVRVWDVNTGEMLNTLIHHCEAVLHLRFNNGMMVTCSKDRSIAVWDMASPTDITLRRVLVGHRAAVNVVDFDDKYIVSASGDRTIKVWNTSTCEFVRTLNGHKRGIACLQYRDRLVVSGSSDNTIRLWDIECGACLRVLEGHEELVRCIRFDNKRIVSGAYDGKIKVWDLVAALDPRAPAGTLCLRTLVEHSGRVFRLQFDEFQIVSSSHDDTILIWDFLNDPAAQAEPPRSPSRTYTYISR

The first assay covers variants of B1. Particulars: with msh3_human MSH3, P20585.
In the case of V326A, the “effect of a mutation on the interaction” value was “disrupting interaction strength”. The same measure, in the same setting: as for S406N, the entry is “with no effect”.

The variants in another assay derive from B1. The settings on record: with ima1_human KPNA2, P52292.
V326A: the “effect of a mutation on the interaction” value was “disrupting interaction strength”.

Turning to S406N, the “effect of a mutation on the interaction” value is recorded as “with no effect”.

Variants of B1 are the subject of a further assay. Particulars: with psa1_human PSMA1, P25786.
With V326A, the “effect of a mutation on the interaction” value is given as “disrupting interaction strength”. The same measure, in the same setting: as for S406N, the entry is “with no effect”.

The variants in another assay derive from B2. Particulars: with snx20_human SNX20, Q7Z614.
In the case of R23H, the “effect of a mutation on the interaction” value is given as “with no effect”.

In a further assay the parent is B3. The settings on record: with creb3_human CREB3, O43889.
With I107V, the “effect of a mutation on the interaction” value was “with no effect”.

In another assay the parent is B4. The settings on record: with tacc1_human TACC1, O75410.
Take R594H: the “effect of a mutation on the interaction” value is listed as “with no effect”. As for T414A, the “effect of a mutation on the interaction” value is reported as “disrupting interaction strength”. On to I439V, for which the “effect of a mutation on the interaction” value is listed as “disrupting interaction strength”. Consider L8M, for which the “effect of a mutation on the interaction” value is “with no effect”.
